The assay deals with human C5aR1 (human) (UniProt P21730). Nature of the assay: cell-based or functional assay.
human C5aR1 (human), sequence (P21730 whole entry): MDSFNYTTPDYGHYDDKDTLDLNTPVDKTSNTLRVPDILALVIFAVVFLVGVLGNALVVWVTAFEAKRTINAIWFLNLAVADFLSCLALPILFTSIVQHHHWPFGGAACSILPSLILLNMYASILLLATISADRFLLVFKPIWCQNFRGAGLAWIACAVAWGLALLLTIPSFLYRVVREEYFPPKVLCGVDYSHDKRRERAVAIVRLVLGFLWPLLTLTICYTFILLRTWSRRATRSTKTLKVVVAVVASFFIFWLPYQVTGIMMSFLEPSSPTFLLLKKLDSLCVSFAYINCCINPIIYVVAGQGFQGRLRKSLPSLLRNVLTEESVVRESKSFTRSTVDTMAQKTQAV

For “hC5a (from UniProt P01031 678-751) (ligand)”, the EC50[M] hC5a, luciferase reporter in HEK293/Gα16/hC5aR1/NFAT-luc cells was determined as 3.9e-10 M.
